Measurements from the supplement of paper PMC10567573.

B1: TSPAN10 (parent)
chain: EGCGPPLRRWLRANLAASGGYAIA

Variants of: B1
Assay: protein stability index of a GFP-peptide fusion (GPS, HEK-293T) (PSI 1-6); higher = more stable
Conditions: c terminus: a fixed tail appended
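Further: lentivirally expressed fusions sorted by FACS into six bins by GFP to DsRed ratio, PSI derived from sequencing read proportions per bin multiplied by bin number.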

Variant	protein stability index
EGCGPPLRRWLRANLAASGKYAIA	2.77
EGCGPPLRRWLRANLAASGHYAIA	2.03
EGCGPPLRRWLRANLAASGQYAIA	2.53
EGCGPPLRRWLRANLAASGPYAIA	2
EGCGPPLRRWLRANLAASGRYAIA	1.48
EGCGPPLRRWLRANLAASGSYAIA	2.17
EGCGPPLRRWLRANLAASGVYAIA	2.21
EGCGPPLRRWLRANLAASGFYAIA	1.96
EGCGPPLRRWLRANLAASGDYAIA	2.25
EGCGPPLRRWLRANLAASGCYAIA	1.56
EGCGPPLRRWLRANLAASGYYAIA	1.66
EGCGPPLRRWLRANLAASGMYAIA	1.84
EGCGPPLRRWLRANLAASGTYAIA	1.63
EGCGPPLRRWLRANLAASGIYAIA	1.49
EGCGPPLRRWLRANLAASGEYAIA	2.33
EGCGPPLRRWLRANLAASGLYAIA	1.96
EGCGPPLRRWLRANLAASGAYAIA	1.94
EGCGPPLRRWLRANLAASGNYAIA	3.44
EGCGPPLRRWLRANLAASGWYAIA	1.84
EGCGPPLRRWLRANLAASGGYIIA	1.03
EGCGPPLRRWLRANLAASGGYWIA	2.18
EGCGPPLRRWLRANLAASGGYCIA	1.38
EGCGPPLRRWLRANLAASGGYHIA	2.23
EGCGPPLRRWLRANLAASGGYRIA	1.68

Variant	protein stability index
EGCGPPLRRWLRANLAASGGYEIA	2.28
EGCGPPLRRWLRANLAASGGYYIA	2.04
EGCGPPLRRWLRANLAASGGYSIA	1.93
EGCGPPLRRWLRANLAASGGYMIA	1.62
EGCGPPLRRWLRANLAASGGYTIA	1.7
EGCGPPLRRWLRANLAASGGYKIA	1.75
EGCGPPLRRWLRANLAASGGYDIA	2.46
EGCGPPLRRWLRANLAASGGYGIA	1.96
EGCGPPLRRWLRANLAASGGYVIA	2.8
EGCGPPLRRWLRANLAASGGYNIA	2.43
EGCGPPLRRWLRANLAASGGYPIA	1.93
EGCGPPLRRWLRANLAASGGYQIA	1.63
EGCGPPLRRWLRANLAASGGYLIA	2.06
EGCGPPLRRWLRANLAASPGYAIA	2.13
EGCGPPLRRWLRANLAASWGYAIA	3.26
EGCGPPLRRWLRANLAASSGYAIA	2.58
EGCGPPLRRWLRANLAASDGYAIA	2.11
EGCGPPLRRWLRANLAASMGYAIA	1.24
EGCGPPLRRWLRANLAASYGYAIA	1.93
EGCGPPLRRWLRANLAASRGYAIA	2.33
EGCGPPLRRWLRANLAASLGYAIA	2.17
EGCGPPLRRWLRANLAASVGYAIA	1.67
EGCGPPLRRWLRANLAASCGYAIA	1.46
EGCGPPLRRWLRANLAASNGYAIA	2.13

Variant	protein stability index
EGCGPPLRRWLRANLAASTGYAIA	1.74
EGCGPPLRRWLRANLAASFGYAIA	1.79
EGCGPPLRRWLRANLAASAGYAIA	1.11
EGCGPPLRRWLRANLAASIGYAIA	1.93
EGCGPPLRRWLRANLAASEGYAIA	1.84
EGCGPPLRRWLRANLAASKGYAIA	1.89
EGCGPPLRRWLRANLAASHGYAIA	2.32
EGCGPPLRRWLRANLAASQGYAIA	1.43
EGCGPPLRRWLRANLAASGGDAIA	2.61
EGCGPPLRRWLRANLAASGGTAIA	2.53
EGCGPPLRRWLRANLAASGGFAIA	1.85
EGCGPPLRRWLRANLAASGGEAIA	2.4
EGCGPPLRRWLRANLAASGGIAIA	1.81
EGCGPPLRRWLRANLAASGGWAIA	1.47
EGCGPPLRRWLRANLAASGGSAIA	2.7
EGCGPPLRRWLRANLAASGGCAIA	2.36
EGCGPPLRRWLRANLAASGGKAIA	3.04
EGCGPPLRRWLRANLAASGGVAIA	2.53
EGCGPPLRRWLRANLAASGGMAIA	2.17
EGCGPPLRRWLRANLAASGGAAIA	2.65
EGCGPPLRRWLRANLAASGGHAIA	2.39
EGCGPPLRRWLRANLAASGGLAIA	2.11
EGCGPPLRRWLRANLAASGGRAIA	2.3
EGCGPPLRRWLRANLAASGGNAIA	2.61

Variant	protein stability index
EGCGPPLRRWLRANLAASGGQAIA	2.75
EGCGPPLRRWLRANLAASGGGAIA	2.11
EGCGPPLRRWLRANLAASGGPAIA	2.07
EGCGPPLRRWLRANLAASGGYANA	2.92
EGCGPPLRRWLRANLAASGGYAGA	2.3
EGCGPPLRRWLRANLAASGGYAEA	2.34
EGCGPPLRRWLRANLAASGGYAFA	2.17
EGCGPPLRRWLRANLAASGGYADA	2.35
EGCGPPLRRWLRANLAASGGYALA	2.16
EGCGPPLRRWLRANLAASGGYAKA	2.96
EGCGPPLRRWLRANLAASGGYAHA	1.96
EGCGPPLRRWLRANLAASGGYAMA	1.21
EGCGPPLRRWLRANLAASGGYACA	2.15
EGCGPPLRRWLRANLAARGGYAIA	1.8
EGCGPPLRRWLRANLAANGGYAIA	2.01
EGCGPPLRRWLRANLAATGGYAIA	2.34
EGCGPPLRRWLRANLAAYGGYAIA	1.4
EGCGPPLRRWLRANLAAQGGYAIA	2.04
EGCGPPLRRWLRANLAAPGGYAIA	2.28
EGCGPPLRRWLRANLAAVGGYAIA	2.16
EGCGPPLRRWLRANLAAMGGYAIA	1.6
EGCGPPLRRWLRANLAAWGGYAIA	2.06
